Reference: patent US20220332804A1 (CSL INNOVATION, published 2022)
Numbering of substitutions follows the chain as printed.

How the values were obtained:
Assay in all cases: SPR; KD relative to WT C2;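 further: biacore SPR at 37 °C, anti-C2 mAbs captured on an anti-human IgG chip, alanine or serine C2 surface mutants tested, KD from 1:1 fit compared with wild-type C2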
[1] = target: T1, human C2 N403A (human, UniProt P06681 21-752)
T1 sequence: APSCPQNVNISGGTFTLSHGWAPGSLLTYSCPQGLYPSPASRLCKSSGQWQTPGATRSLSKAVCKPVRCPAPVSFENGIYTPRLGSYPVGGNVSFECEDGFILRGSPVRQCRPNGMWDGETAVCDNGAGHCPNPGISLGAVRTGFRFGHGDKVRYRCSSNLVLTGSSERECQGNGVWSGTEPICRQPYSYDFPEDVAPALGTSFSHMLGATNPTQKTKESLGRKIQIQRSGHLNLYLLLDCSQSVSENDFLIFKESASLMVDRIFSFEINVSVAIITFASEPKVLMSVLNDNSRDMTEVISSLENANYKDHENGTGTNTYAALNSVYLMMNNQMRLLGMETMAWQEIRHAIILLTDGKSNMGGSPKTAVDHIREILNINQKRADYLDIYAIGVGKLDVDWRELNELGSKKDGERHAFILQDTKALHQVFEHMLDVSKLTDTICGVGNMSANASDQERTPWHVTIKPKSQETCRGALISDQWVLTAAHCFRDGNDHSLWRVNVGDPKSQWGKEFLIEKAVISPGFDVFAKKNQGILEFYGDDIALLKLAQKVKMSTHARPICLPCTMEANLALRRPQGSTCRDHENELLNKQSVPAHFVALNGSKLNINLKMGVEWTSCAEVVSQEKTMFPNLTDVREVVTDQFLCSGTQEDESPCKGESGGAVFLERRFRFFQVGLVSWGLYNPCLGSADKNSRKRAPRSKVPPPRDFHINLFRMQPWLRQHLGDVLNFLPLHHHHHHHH

[2] = target: T2, human C2 N424A (human, UniProt P06681 21-752)
T2 sequence: T1 sequence with A383N, N404A

[3] = target: T3, human C2 D441A (human, UniProt P06681 21-752)
T3 sequence: T1 sequence with A383N, D421A

[4] = target: T4, human C2 E686A (human, UniProt P06681 21-752)
T4 sequence: T1 sequence with A383N, E666A

B1: RF16-214 (antibody, V domains shown)
VH: EVQLLESGGGLVQPGGSLRLSCAASGFTFSWYQMMWVRQAPGKGLEWVSRIYPSGGGTAYADSVKGRFTISRDNSKNTLYLQMNSLRAEDTAVYYCARDAGYGDNWGQGTLVTVSS
VL: QSALTQPPSVSVSPGQTASITCSGDKLGEKYASWYQQKAGQSPVMVIYQDRKRPSGIPERFSGSNSGNTATLTISGTQAMDEADYYCQAWDTRAVVFGGGTKLTVLG
Question: How did the Fold diff [1] turn out when B1 was run?
Answer: The Fold diff was 1 fold.

Question: What about the Fold diff [2] of the same binder?
Answer: Its Fold diff is 1 fold.

Question: What about the Fold diff [3] of the same binder?
Answer: Its Fold diff is 2 fold.

Question: And the Fold diff [4]?
Answer: Its Fold diff is 4 fold.
